This passage reports reduction in secreted IL-6 induced by IL-17A in the presence of TNF-α, after simultaneous IL-17RA and IL-17RC iRNAs results from patent US20100021456A1.

For assay [1], the target named is IL-17RA receptor (IL-17 receptor A) on RA synoviocytes (human) (UniProt Q96F46). The experiment in a line: cell-based or functional assay.
Assay [2] deals with IL-17RC receptor (IL-17 receptor C) on RA synoviocytes (human) (UniProt Q8NAC3). The experiment in a line: cell-based or functional assay.
UniProt Q8NAC3, sequence (Q8NAC3 21-791): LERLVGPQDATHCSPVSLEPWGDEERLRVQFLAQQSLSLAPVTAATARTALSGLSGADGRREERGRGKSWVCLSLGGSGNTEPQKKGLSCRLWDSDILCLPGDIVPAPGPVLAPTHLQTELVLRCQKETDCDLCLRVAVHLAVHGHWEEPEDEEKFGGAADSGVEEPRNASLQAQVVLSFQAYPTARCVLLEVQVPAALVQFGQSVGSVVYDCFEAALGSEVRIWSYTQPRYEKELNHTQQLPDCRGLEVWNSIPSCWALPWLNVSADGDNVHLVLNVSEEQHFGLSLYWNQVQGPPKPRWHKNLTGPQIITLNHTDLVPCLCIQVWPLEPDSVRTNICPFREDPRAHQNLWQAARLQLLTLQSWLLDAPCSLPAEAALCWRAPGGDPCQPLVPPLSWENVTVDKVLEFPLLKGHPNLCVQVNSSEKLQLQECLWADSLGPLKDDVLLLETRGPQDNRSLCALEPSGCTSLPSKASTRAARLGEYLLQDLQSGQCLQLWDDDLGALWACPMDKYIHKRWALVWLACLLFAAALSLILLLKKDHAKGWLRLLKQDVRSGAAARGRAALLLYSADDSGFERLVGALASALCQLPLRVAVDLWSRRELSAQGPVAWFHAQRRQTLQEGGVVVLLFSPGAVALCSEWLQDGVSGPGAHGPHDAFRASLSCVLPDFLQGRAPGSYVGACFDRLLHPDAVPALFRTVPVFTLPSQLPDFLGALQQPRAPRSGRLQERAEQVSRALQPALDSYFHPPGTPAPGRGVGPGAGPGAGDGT

As for “recombinant human IL-17A (R&D Systems) (from UniProt Q16552 24-155) (ligand)”, the reduction in secreted IL-6 induced by IL-17A in the presence of TNF-α, after simultaneous IL-17RA and IL-17RC iRNAs in assay [1] and in assay [2] was 20% throughout.
